B1: HDV Ribozyme (parent)
chain: GGCCGGCAUGGUCCCAGCCUCCUCGCUGGCGCCGGCUGGGCAACAUUCCGAGGGGACCGUCCCCUCGGUAAUGGCGAAUGGGACCCA

Variants of: B1
Assay: self-cleavage, relative activity (ratio to wild type); higher = more cleavage; co-transcriptional
GGCCGGCAUGGUCCCAGCCUCCUCGCUGGCGCCGGCUGGGCAACAUUCCGAGGGGACCGUACCGUCGGUAAUGGCGAAUGGGACCCA gave a self-cleavage of 0.791.
Work on GGCCGGCAUGGUCCCAGCCUCCUCGCUGGCGCCGGCUGGGCAACAUUCCGAGGGGACCGUACCAUCGGUAAUGGCGAAUGGGACCCA yielded a self-cleavage of 0.96.
For GGCCGGCAUGGUCCCAGCCUCCUCGCUGGCGCCGGCUGGGCAACAUUCCGAGGGGACCGUACCCUCGGUAAUGGCGAAUGGGACCGA, the self-cleavage was 0.908.
For GGCCGGCAUGGUCCCAGCCUCCUCGCUGGCGCCGGCUGGGCAACAUUCCGAGGGGACCGUACCCUCGAUAAUGGCGAAUGGGACCCA, the self-cleavage was 1.08.
Work on GGCCGGCAUGGUCCCAGCCUCCUCGCUGGCGCCGGCUGGGCAACAUUCCGAGGGGACCGUACCCUCAGUAAUGGCGAAUGGGACCCA yielded a self-cleavage of 0.9.
In the case of GGCCGGCAUGGUCCCAGCCUCCUCGCUGGCGCCGGCUGGGCAACAUUCCGAGGGGACCGUACCCUCCGUAAUGGCGAAUGGGACCCA, the self-cleavage is reported as 0.831.
GGCCGGCAUGGUCCCAGCCUCCUCGCUGGCGCCGGCUGGGCAACAUUCCGAGGGGACCGUACCCUCUGUAAUGGCGAAUGGGACCCA showed a self-cleavage of 1.12.
GGCCGGCAUGGUCCCAGCCUCCUCGCUGGCGCCGGCUGGGCAACAUUCCGAGGGGACCGUACCCUCGGUAAAGGCGAAUGGGACCCA showed a self-cleavage of 0.745.
Work on GGCCGGCAUGGUCCCAGCCUCCUCGCUGGCGCCGGCUGGGCAACAUUCCGAGGGGACCGUACCCUCGGUAAUGGCGAAUAGGACCCA yielded a self-cleavage of 0.41.
With GGCCGGCAUGGUCCCAGCCUCCUCGCUGGCGCCGGCUGGGCAACAUUCCGAGGGGACCGUACCCUCGGUAAUGGCGAAUCGGACCCA the self-cleavage was 0.201.
GGCCGGCAUGGUCCCAGCCUCCUCGCUGGCGCCGGCUGGGCAACAUUCCGAGGGGACCGUACCCUCGGUAAUGGCGAAUUGGACCCA showed a self-cleavage of 0.203.
Variant GGCCGGCAUGGUCCCAGCCUCCUCGCUGGCGCCGGCUGGGCAACAUUCCGAGGGGACCGUACCCGCGGUAAUGGCGAAUGGGACCCA has a self-cleavage of 0.92.
For GGCCGGCAUGGUCCCAGCCUCCUCGCUGGCGCCGGCUGGGCAACAUUCCGAGGGGACCGUACCCACGGUAAUGGCGAAUGGGACCCA, the self-cleavage was 0.774.
In the case of GGCCGGCAUGGUCCCAGCCUCCUCGCUGGCGCCGGCUGGGCAACAUUCCGAGGGGACCGUACCCUCGGUAAUGGCGAAUGAGACCCA, the self-cleavage is reported as 0.354.
GGCCGGCAUGGUCCCAGCCUCCUCGCUGGCGCCGGCUGGGCAACAUUCCGAGGGGACCGUACCCUCGGUAAUGGCGAAUGUGACCCA showed a self-cleavage of 0.347.
In the case of GGCCGGCAUGGUCCCAGCCUCCUCGCUGGCGCCGGCUGGGCAACAUUCCGAGGGGACCGUACCCUCGGUAAUGGCGAAUGGGACGCA, the self-cleavage is reported as 0.988.
In the case of GGCCGGCAUGGUCCCAGCCUCCUCGCUGGCGCCGGCUGGGCAACAUUCCGAGGGGACCGUACCCUCGGUAAUAGCGAAUGGGACCCA, the self-cleavage is reported as 0.641.
Work on GGCCGGCAUGGUCCCAGCCUCCUCGCUGGCGCCGGCUGGGCAACAUUCCGAGGGGACCGUACCCUCGGUAAUUGCGAAUGGGACCCA yielded a self-cleavage of 0.353.
GGCCGGCAUGGUCCCAGCCUCCUCGCUGGCGCCGGCUGGGCAACAUUCCGAGGGGACCGUACCCUCGGUAAUGGCAAAUGGGACCCA gave a self-cleavage of 1.02.
Work on GGCCGGCAUGGUCCCAGCCUCCUCGCUGGCGCCGGCUGGGCAACAUUCCGAGGGGACCGUACCCUCGGUAAUGGCCAAUGGGACCCA yielded a self-cleavage of 1.08.
Variant GGCCGGCAUGGUCCCAGCCUCCUCGCUGGCGCCGGCUGGGCAACAUUCCGAGGGGACCGUACCCUCGGUAAUGGUGAAUGGGACCCA has a self-cleavage of 0.178.
Work on GGCCGGCAUGGUCCCAGCCUCCUCGCUGGCGCCGGCUGGGCAACAUUCCGAGGGGACCGUACCCUCGGUAAUGGGGAAUGGGACCCA yielded a self-cleavage of 0.177.
GGCCGGCAUGGUCCCAGCCUCCUCGCUGGCGCCGGCUGGGCAACAUUCCGAGGGGACCGUACCCUCGGUAAUGGCGAAUGGUACCCA showed a self-cleavage of 0.507.
For GGCCGGCAUGGUCCCAGCCUCCUCGCUGGCGCCGGCUGGGCAACAUUCCGAGGGGACCGUACCCUAGGUAAUGGCGAAUGGGACCCA, the self-cleavage was 0.992.
With GGCCGGCAUGGUCCCAGCCUCCUCGCUGGCGCCGGCUGGGCAACAUUCCGAGGGGACCGUACCCUUGGUAAUGGCGAAUGGGACCCA the self-cleavage was 1.1.
For GGCCGGCAUGGUCCCAGCCUCCUCGCUGGCGCCGGCUGGGCAACAUUCCGAGGGGACCGUACCCUGGGUAAUGGCGAAUGGGACCCA, the self-cleavage was 0.942.
GGCCGGCAUGGUCCCAGCCUCCUCGCUGGCGCCGGCUGGGCAACAUUCCGAGGGGACCGUACCCUCGGUAAUGGCGAAUGGGAUCCA gave a self-cleavage of 0.831.
GGCCGGCAUGGUCCCAGCCUCCUCGCUGGCGCCGGCUGGGCAACAUUCCGAGGGGACCGUACCCUCGGUAAUGGCGAAUGGGAACCA gave a self-cleavage of 0.831.
GGCCGGCAUGGUCCCAGCCUCCUCGCUGGCGCCGGCUGGGCAACAUUCCGAGGGGACCGUACCCUCGGUAAUGACGAAUGGGACCCA gave a self-cleavage of 0.561.
Variant GGCCGGCAUGGUCCCAGCCUCCUCGCUGGCGCCGGCUGGGCAACAUUCCGAGGGGACCGUACCCUCGGUAAUGUCGAAUGGGACCCA has a self-cleavage of 0.63.
GGCCGGCAUGGUCCCAGCCUCCUCGCUGGCGCCGGCUGGGCAACAUUCCGAGGGGACCGUACGCUCGGUAAUGGCGAAUGGGACCCA showed a self-cleavage of 0.499.
GGCCGGCAUGGUCCCAGCCUCCUCGCUGGCGCCGGCUGGGCAACAUUCCGAGGGGACCGUACUCUCGGUAAUGGCGAAUGGGACCCA showed a self-cleavage of 1.07.

Reference: the RNAGym collection of RNA variant scans (doi:10.7554/elife.80360)
